Laboratory results from IntAct's records for PubMed 20531387.

B1: Centrosomal P4.1-associated protein (Homo sapiens), Q9HC77 (parent)
chain: MFLMPTSSELNSGQNFLTQWMTNPSRAGVILNRGFPILEADKEKRAAVDISTSFPIKGTHFSDSFSFINEEDSLLEEQKLESNNPYKPQSDKSETHTAFPCIKKGPQVAACHSAPGHQEENKNDFIPDLASEFKEGAYKDPLFKKLEQLKEVQQKKQEQLKRQQLEQLQRLMEEQEKLLTMVSGQCTLPGLSLLPDDQSQKHRSPGNTTTGERATCCFPSYVYPDPTQEETYPSNILSHEQSNFCRTAHGDFVLTSKRASPNLFSEAQYQEAPVEKNNLKEENRNHPTGESILCWEKVTEQIQEANDKNLQKHDDSSEVANIEERPIKAAIGERKQTFEDYLEEQIQLEEQELKQKQLKEAEGPLPIKAKPKQPFLKRGEGLARFTNAKSKFQKGKESKLVTNQSTSEDQPLFKMDRQQLQRKTALKNKELCADNPILKKDSKARTKSGSVTLSQKPKMLKCSNRKSLSPSGLKIQTGKKCDGQFRDQIKFENKVTSNNKENVTECPKPCDTGCTGWNKTQGKDRLPLSTGPASRLAAKSPIRETMKESESSLDVSLQKKLETWEREKEKENLELDEFLFLEQAADEISFSSNSSFVLKILERDQQICKGHRMSSTPVKAVPQKTNPADPISHCNRSEDLDHTAREKESECEVAPKQLHSLSSADELREQPCKIRKAVQKSTSENQTEWNARDDEGVPNSDSSTDSEEQLDVTIKPSTEDRERGISSREDSPQVCDDKGPFKDTRTQEDKRRDVDLDLSDKDYSSDESIMESIKHKVSEPSRSSSLSLSKMDFDDERTWTDLEENLCNHDVVLGNESTYGTPQTCYPNNEIGILDKTIKRKIAPVKRGEDLSKSRRSRSPPTSELMMKFFPSLKPKPKSDSHLGNELKLNISQDQPPGDNARSQVLREKIIELETEIEKFKAENASLAKLRIERESALEKLRKEIADFEQQKAKELARIEEFKKEEMRKLQKERKVFEKYTTAARTFPDKKEREEIQTLKQQIADLREDLKRKETKWSSTHSRLRSQIQMLVRENTDLREEIKVMERFRLDAWKRAEAIESSLEVEKKDKLANTSVRFQNSQISSGTQVEKYKKNYLPMQGNPPRRSKSAPPRDLGNLDKGQAASPREPLEPLNFPDPEYKEEEEDQDIQGEISHPDGKVEKVYKNGCRVILFPNGTRKEVSADGKTITVTFFNGDVKQVMPDQRVIYYYAAAQTTHTTYPEGLEVLHFSSGQIEKHYPDGRKEITFPDQTVKNLFPDGQEESIFPDGTIVRVQRDGNKLIEFNNGQRELHTAQFKRREYPDGTVKTVYANGHQETKYRSGRIRVKDKEGNVLMDTEL
B2: Centrosomal P4.1-associated protein (Homo sapiens), Q9HC77 (parent)
chain: B1 chain
partner: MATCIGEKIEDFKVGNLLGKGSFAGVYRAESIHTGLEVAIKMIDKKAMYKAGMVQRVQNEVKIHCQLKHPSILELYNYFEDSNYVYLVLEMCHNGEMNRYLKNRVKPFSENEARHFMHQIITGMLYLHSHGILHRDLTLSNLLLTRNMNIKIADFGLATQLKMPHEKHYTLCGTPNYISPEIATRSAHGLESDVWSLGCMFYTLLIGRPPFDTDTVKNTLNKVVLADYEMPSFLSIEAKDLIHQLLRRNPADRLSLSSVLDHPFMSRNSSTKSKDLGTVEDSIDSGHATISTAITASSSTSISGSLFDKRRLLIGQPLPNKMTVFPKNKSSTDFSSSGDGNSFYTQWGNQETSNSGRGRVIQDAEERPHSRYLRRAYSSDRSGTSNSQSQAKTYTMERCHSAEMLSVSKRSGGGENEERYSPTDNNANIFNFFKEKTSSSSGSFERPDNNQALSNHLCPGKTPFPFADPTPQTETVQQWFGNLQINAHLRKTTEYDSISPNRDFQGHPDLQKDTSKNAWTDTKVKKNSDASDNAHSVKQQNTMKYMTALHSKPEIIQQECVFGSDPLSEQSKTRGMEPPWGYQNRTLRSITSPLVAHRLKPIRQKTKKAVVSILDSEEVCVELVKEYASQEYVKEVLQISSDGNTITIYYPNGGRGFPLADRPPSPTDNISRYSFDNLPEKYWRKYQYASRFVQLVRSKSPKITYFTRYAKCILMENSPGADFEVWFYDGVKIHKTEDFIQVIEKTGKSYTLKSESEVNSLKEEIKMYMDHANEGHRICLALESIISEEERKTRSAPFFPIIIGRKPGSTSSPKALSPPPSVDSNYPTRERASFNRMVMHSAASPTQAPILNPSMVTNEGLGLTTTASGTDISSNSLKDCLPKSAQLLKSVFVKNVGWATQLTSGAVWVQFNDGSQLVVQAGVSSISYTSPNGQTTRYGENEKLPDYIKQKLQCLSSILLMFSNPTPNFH

Variants of: B1
Conditions: with plk2_human PLK2, Q9NYY3
plk2_human PLK2, Q9NYY3, sequence (Q9NYY3 whole entry, looked up): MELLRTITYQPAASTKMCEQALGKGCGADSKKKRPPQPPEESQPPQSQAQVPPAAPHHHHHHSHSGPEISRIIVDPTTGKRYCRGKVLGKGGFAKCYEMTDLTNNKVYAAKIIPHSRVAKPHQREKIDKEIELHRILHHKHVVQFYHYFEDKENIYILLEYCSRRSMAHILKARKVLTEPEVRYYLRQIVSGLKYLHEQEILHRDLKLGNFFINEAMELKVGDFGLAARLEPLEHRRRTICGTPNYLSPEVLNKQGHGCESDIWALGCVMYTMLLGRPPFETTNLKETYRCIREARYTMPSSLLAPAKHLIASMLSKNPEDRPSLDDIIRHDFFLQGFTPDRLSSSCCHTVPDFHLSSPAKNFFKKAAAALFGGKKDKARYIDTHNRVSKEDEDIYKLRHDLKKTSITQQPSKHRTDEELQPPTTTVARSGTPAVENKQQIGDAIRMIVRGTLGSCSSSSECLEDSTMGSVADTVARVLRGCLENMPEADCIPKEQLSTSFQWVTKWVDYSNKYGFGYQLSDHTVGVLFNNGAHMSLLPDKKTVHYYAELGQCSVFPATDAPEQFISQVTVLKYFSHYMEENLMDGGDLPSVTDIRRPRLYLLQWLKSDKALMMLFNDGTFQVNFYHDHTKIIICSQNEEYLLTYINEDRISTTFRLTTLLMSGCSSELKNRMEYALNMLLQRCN

Row | Variant | effect of a mutation on the interaction
1 | S589A | decreasing interaction

Variants of: B1
Conditions: with plk2_human PLK2, Q9NYY3
Remark: another data set of the same source

Row | Variant | effect of a mutation on the interaction
2 | S589A | disrupting interaction
3 | S595A | disrupting interaction

Variants of: B1
Conditions: with plk2_human PLK2, Q9NYY3
Remark: another data set of the same source

Row | Variant | effect of a mutation on the interaction
4 | S595A | decreasing interaction

Variants of: B2
Conditions: with plk4_human PLK4, O00444

Row | Variant | effect of a mutation on the interaction
5 | S589A | disrupting interaction
6 | S595A | disrupting interaction
